First the molecules themselves.
B1: EcAIII (Escherichia coli K-12) (protein)
chain 1: GKAVIAIHGGAGAISRAQMSLQQELRYIEALSAIVETGQKMLEAGESALDVVTEAVRLLEECPLFNAGIGAVFTRDETHELDACVMDGNTLKAGAVAGVSHLRNPVLAARLVMEQSPHVMMIGEGAENFAFARGMERVSPEIFSTSLRYEQLLAARKEGATVLDHSGAPLDEKQKMG
chain 2: TVGAVALDLDGNLAAATSTGGMTNKLPGRVGDSPLVGAGCYANNASVAVSCTGTGEVFIRALAAYDIAALMDYGGLSLAEACERVVMEKLPALGGSGGLIAIDHEGNVALPFNTEGMYRAWGYAGDTPTTGIYREKGDTVATQ
notes: untagged as described; EcAIII gene in pET11d, bacterial expression; precursor autoproteolytically matured to subunits alpha and beta from one gene, (alphabeta)2; purified by DEAE and SEC
B2: EcAIII (Escherichia coli K-12; M200T) (protein)
chain 1: B1 chain 1
chain 2: B1 chain 2 with M22T
notes: as for B1
B3: EcAIII (Escherichia coli K-12; M200I) (protein)
chain 1: B1 chain 1
chain 2: B1 chain 2 with M22I
notes: as for B1
B4: EcAIII (Escherichia coli K-12; M200K) (protein)
chain 1: B1 chain 1
chain 2: B1 chain 2 with M22K
notes: as for B1
B5: EcAIII (Escherichia coli K-12; M200L) (protein)
chain 1: B1 chain 1
chain 2: B1 chain 2 with M22L
notes: as for B1
B6: EcAIII (Escherichia coli K-12; M200W) (protein)
chain 1: B1 chain 1
chain 2: B1 chain 2 with M22W
notes: as for B1

Numbering of substitutions follows the chain as printed. Names may count otherwise.

T1 sequence (P37595 179-321 M200T, one chain of several): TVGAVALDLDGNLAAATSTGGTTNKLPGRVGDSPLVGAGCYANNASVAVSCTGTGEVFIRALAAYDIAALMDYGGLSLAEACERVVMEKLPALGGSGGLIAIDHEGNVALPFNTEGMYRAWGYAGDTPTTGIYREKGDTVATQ

The first series addresses T1, EcAIII (Escherichia coli, UniProt P37595, M200T).
T1 construct: gene iaaA; untagged as described; EcAIII gene in pET11d, bacterial expression; precursor autoproteolytically matured to subunits alpha and beta from one gene, (alphabeta)2; purified by DEAE and SEC
Briefly: X-ray crystal structure. It is filed as binding. The settings on record: M200T#m monoclinic, 1.84 Å; Gly added at 1:1 molar ratio; active site, two of four sites.
Consider `NCC(=O)O` [Gly], for which the X-ray crystal structure entry is “In the structure M200T#m, glycine molecules were found in two out of four active sites”.

The next series deals with T2, EcAIII (Escherichia coli, UniProt P37595, M200L).
T2 construct: gene iaaA; untagged as described; EcAIII gene in pET11d, bacterial expression; precursor autoproteolytically matured to subunits alpha and beta from one gene, (alphabeta)2; purified by DEAE and SEC
T2 sequence (P37595 179-321 M200L, one chain of several): as the sequence (P37595 179-321 M200T, one chain of several) above, with T22L counted along it
The series can be described thus: X-ray crystal structure. It counts as binding. The settings on record: covalent; beta-acyl-enzyme intermediate on Thr179, chain D.
With `NC(=O)C[C@H](N)C(=O)O` [L-Asn], the X-ray crystal structure entry is listed as “in the structure of variant M200L in chain D, we identified an acyl‐enzyme intermediate”.

Substrate in a further series: NC(=O)C[C@H](N)C(=O)O
The series can be described thus: purified protein. It is filed as biochemical, Escherichia coli. Particulars: 20 mM Tris-HCl pH 8.0, 20 °C, L-Asn 0-84 mM.
On to B1, for which the Km is recorded as 22 ± 3 mM and the kcat is 501 ± 22.3 s⁻¹. With B2, the Km was 64 ± 6 mM and the kcat worked out at 217 ± 10.6 s⁻¹. For B3, the Km came to 35 ± 4 mM and the kcat worked out at 632 ± 37.9 s⁻¹. For the molecule B4, the Km is given as 40 ± 9 mM and the kcat amounted to 127 ± 11.9 s⁻¹. On to B5, for which the Km is given as 37 ± 5 mM and the kcat was 195 ± 12.7 s⁻¹. In the same order, the values of B6 are 36 ± 10 mM and 290 ± 37.3 s⁻¹.

The values above are taken from publication PMC10204187, “The effects of nature‐inspired amino acid substitutions on structural and biochemical properties of the E. coli L‐asparaginase EcAIII” (Protein Science : A Publication of the Protein Society, 2023).
